Measurements: patent US20140378382A1 (WISCONSIN ALUMNI RESEARCH FOUNDATION, published 2014)
Read-outs that look alike come from different tables or passages of the source. Non-standard residues stand in square brackets, D forms with d. No end group written: not given here. ACPC = 2-aminocyclopentane carboxylic acid; hArg = N=C(N)NCCCC[C@H](N)C(=O)O; β3hQ = NC(=O)CC[C@H](N)CC(=O)O; β3hS = N[C@@H](CO)CC(=O)O; β3hA = C[C@H](N)CC(=O)O; Aib = CC(C)(N)C(=O)O

T1: PTHR-1 (species and cells not stated for the assay) (Homo sapiens (Human), UniProt Q03431 27-593)
T1 sequence: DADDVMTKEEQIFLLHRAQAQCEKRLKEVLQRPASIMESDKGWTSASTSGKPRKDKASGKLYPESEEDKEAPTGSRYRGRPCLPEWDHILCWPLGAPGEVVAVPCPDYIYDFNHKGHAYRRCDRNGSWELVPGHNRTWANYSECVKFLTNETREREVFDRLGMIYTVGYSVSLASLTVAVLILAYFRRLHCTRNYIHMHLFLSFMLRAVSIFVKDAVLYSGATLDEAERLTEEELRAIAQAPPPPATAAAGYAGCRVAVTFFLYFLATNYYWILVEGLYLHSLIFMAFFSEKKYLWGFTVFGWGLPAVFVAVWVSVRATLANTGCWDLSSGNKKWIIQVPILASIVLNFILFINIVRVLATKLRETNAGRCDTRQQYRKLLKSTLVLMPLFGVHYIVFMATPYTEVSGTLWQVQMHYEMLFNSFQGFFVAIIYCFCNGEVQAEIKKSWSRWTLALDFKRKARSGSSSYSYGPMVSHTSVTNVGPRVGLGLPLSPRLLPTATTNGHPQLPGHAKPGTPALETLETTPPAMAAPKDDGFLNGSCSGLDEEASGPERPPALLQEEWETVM

T2: rat parathyroid hormone receptor 1, wild-type (rPTHR-1) (rat, UniProt P25961 27-591)
T2 sequence (looked up): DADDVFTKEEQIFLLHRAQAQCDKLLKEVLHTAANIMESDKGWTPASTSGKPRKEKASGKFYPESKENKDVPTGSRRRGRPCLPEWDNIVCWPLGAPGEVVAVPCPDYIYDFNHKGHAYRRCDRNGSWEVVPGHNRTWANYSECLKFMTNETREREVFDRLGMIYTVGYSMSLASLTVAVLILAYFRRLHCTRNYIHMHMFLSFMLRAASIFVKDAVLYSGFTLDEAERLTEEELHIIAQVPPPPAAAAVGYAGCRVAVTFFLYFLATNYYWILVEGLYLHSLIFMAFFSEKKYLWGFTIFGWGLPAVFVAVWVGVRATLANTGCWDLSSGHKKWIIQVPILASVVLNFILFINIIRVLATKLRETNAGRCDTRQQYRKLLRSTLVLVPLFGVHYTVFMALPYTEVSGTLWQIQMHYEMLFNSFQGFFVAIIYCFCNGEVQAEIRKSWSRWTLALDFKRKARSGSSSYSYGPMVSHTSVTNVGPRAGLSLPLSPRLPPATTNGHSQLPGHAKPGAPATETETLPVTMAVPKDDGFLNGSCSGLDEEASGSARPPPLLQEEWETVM

T3: human parathyroid hormone receptor 1, wild-type (hPTHR-1) (human, UniProt Q03431 27-593)
T3 sequence (looked up): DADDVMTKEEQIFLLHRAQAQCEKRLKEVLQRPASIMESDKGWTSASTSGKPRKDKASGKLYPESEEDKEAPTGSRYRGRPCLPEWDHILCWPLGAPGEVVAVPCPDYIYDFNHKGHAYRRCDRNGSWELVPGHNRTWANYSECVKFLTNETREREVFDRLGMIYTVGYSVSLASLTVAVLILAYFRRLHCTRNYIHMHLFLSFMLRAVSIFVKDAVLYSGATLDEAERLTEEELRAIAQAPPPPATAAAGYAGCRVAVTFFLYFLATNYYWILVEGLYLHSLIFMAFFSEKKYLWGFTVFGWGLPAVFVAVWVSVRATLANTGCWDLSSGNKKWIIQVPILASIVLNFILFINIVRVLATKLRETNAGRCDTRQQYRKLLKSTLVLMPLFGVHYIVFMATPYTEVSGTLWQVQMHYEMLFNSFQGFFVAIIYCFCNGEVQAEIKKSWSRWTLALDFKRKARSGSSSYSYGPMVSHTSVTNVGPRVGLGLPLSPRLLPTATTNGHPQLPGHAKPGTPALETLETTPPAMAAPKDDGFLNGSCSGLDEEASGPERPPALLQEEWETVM

T4: delNT PTHR1 (human, UniProt Q03431 27-593)
T4 sequence (looked up): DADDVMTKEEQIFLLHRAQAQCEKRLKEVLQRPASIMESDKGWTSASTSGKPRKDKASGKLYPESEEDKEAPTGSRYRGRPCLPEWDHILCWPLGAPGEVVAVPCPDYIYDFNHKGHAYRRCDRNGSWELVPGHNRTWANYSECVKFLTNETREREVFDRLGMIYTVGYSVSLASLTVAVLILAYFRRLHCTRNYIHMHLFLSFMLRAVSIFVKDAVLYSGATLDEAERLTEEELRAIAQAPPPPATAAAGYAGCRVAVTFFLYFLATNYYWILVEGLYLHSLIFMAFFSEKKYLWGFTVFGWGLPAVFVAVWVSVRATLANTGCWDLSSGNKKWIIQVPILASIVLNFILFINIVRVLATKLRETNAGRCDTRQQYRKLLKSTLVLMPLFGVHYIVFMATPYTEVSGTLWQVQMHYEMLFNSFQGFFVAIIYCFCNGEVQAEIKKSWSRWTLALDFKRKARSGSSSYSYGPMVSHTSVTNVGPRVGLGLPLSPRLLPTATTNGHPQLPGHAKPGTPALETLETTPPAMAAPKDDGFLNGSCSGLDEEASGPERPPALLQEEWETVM


Key:
Assay in all cases: cell-based or functional assay
[1] = target: T1, PTHR-1 (species and cells not stated …)
[2] = target: T2, rat parathyroid hormone receptor 1, …; parameters: AUC-on / AUC-washout: unit not given beside the values
[3] = target: T3, human parathyroid hormone receptor 1, …
delNT PTHR1 = target: T4, delNT PTHR1
[4] = target: T3, human parathyroid hormone receptor 1, …; remark: listed apart in the source

Row | Binder | Fold PTH [3] | cAMP EC50 [3] | Fold PTH (delNT PTHR1) | cAMP EC50 (delNT PTHR1) | other results
1 | AVAEIQLMHQ[hArg]AKWLNSMRRVEWLRKKLQDVHNF-NH2 (N-terminus assumed; SMILES CC[C@H](C)[C@H](NC(=O)[C@H](CCC(=O)O)NC(=O)[C@H](C)NC(=O)[C@@H](NC(=O)[C@H](C)N)C(C)C)C(=O)N[C@@H](CCC(N)=O)C(=O)N[C@@H](CC(C)C)C(=O)N[C@@H](CCSC)C(=O)N[C@@H](Cc1c[nH]cn1)C(=O)N[C@@H](CCC(N)=O)C(=O)N[C@@H](CCCCNC(=N)N)C(=O)N[C@@H](C)C(=O)N[C@@H](CCCCN)C(=O)N[C@@H](Cc1c[nH]c2ccccc12)C(=O)N[C@@H](CC(C)C)C(=O)N[C@@H](CC(N)=O)C(=O)N[C@@H](CO)C(=O)N[C@@H](CCSC)C(=O)N[C@@H](CCCNC(=N)N)C(=O)N[C@@H](CCCNC(=N)N)C(=O)N[C@H](C(=O)N[C@@H](CCC(=O)O)C(=O)N[C@@H](Cc1c[nH]c2ccccc12)C(=O)N[C@@H](CC(C)C)C(=O)N[C@@H](CCCNC(=N)N)C(=O)N[C@@H](CCCCN)C(=O)N[C@@H](CCCCN)C(=O)N[C@@H](CC(C)C)C(=O)N[C@@H](CCC(N)=O)C(=O)N[C@@H](CC(=O)O)C(=O)N[C@H](C(=O)N[C@@H](Cc1c[nH]cn1)C(=O)N[C@@H](CC(N)=O)C(=O)N[C@@H](Cc1ccccc1)C(N)=O)C(C)C)C(C)C) [M-PTH(1-34)] |  |  |  |  | Fold PTH [1]: 4.2 fold; cAMP EC50 [1]: 0.34 nM; AUC Ratio [2]: 14.8; AUC-on [2]: 43000; AUC-washout [2]: 640000
2 | SV[ACPC]EIQLMHNLGKHLNSMERVEWLRKKLQDVHNF-NH2 [ACPC(3) PTH(1-34)] | 126 fold | 11.5 nM | 130 fold | 7800 nM | 
3 | [ACPC]VSEIQLMHNLGKHLNSMERVEWLRKKLQDVHNF-NH2 [ACPC(1) PTH(1-34)] | 1.6 fold | 0.15 nM | 8 fold | 500 nM | 
4 | [ACPC]VSE[ACPC]Q[ACPC]LHDKGKSIQDLRRRELLEKLL[Aib]KLHTA-NH2 [BA058 ACPC(1,5,7)] |  |  |  |  | cAMP EC50 [4]: 0.26 nM
5 | [ACPC]VSEHQ[ACPC]LHDKGKSIQDLRRRELLEKLL[Aib]KLHTA-NH2 [BA058 ACPC(1,7)] |  |  |  |  | cAMP EC50 [4]: 4.69 nM
6 | SVSEI[ACPC]LMHNLGKHLNSMERVEWLRKKLQDVHNF-NH2 [ACPC(6) PTH(1-34)] | 3.7 fold | 0.34 nM | 360 fold | 22000 nM | 
7 | SVSE[ACPC]QLMHNLGKHLNSMERVEWLRKKLQDVHNF-NH2 [ACPC(5) PTH(1-34)] | 1.9 fold | 0.17 nM | 65 fold | 4100 nM | 

Second part, led by results:

Row | Fold PTH [3] | cAMP EC50 [3] | Fold PTH (delNT PTHR1) | cAMP EC50 (delNT PTHR1) | Binder | other results
8 | 2.2 fold | 0.2 nM | 0.4 fold | 25 nM | [β3hA]VSEIQLMHNLGKHLNSMERVEWLRKKLQDVHNF-NH2 (N-terminus assumed; SMILES CC[C@H](C)[C@H](NC(=O)[C@H](CCC(=O)O)NC(=O)[C@H](CO)NC(=O)[C@@H](NC(=O)C[C@H](C)N)C(C)C)C(=O)N[C@@H](CCC(N)=O)C(=O)N[C@@H](CC(C)C)C(=O)N[C@@H](CCSC)C(=O)N[C@@H](Cc1c[nH]cn1)C(=O)N[C@@H](CC(N)=O)C(=O)N[C@@H](CC(C)C)C(=O)NCC(=O)N[C@@H](CCCCN)C(=O)N[C@@H](Cc1c[nH]cn1)C(=O)N[C@@H](CC(C)C)C(=O)N[C@@H](CC(N)=O)C(=O)N[C@@H](CO)C(=O)N[C@@H](CCSC)C(=O)N[C@@H](CCC(=O)O)C(=O)N[C@@H](CCCNC(=N)N)C(=O)N[C@H](C(=O)N[C@@H](CCC(=O)O)C(=O)N[C@@H](Cc1c[nH]c2ccccc12)C(=O)N[C@@H](CC(C)C)C(=O)N[C@@H](CCCNC(=N)N)C(=O)N[C@@H](CCCCN)C(=O)N[C@@H](CCCCN)C(=O)N[C@@H](CC(C)C)C(=O)N[C@@H](CCC(N)=O)C(=O)N[C@@H](CC(=O)O)C(=O)N[C@H](C(=O)N[C@@H](Cc1c[nH]cn1)C(=O)N[C@@H](CC(N)=O)C(=O)N[C@@H](Cc1ccccc1)C(N)=O)C(C)C)C(C)C) [β3Ala(1) PTH(1-34)] | 
9 |  | 0.06 nM |  |  | [β3hS]VSEIQLMHNLGKHLNSMERVEWLRKKLQDVHNF-NH2 [β3Ser(1) PTH(1-34)] | 
10 |  | 14.6 nM |  | 6700 nM | SVSEI[β3hQ]LMHNLGKHLNSMERVEWLRKKLQDVHNF-NH2 [β3Gln(6) PTH(1-34)] | 
